# Patent publication US6284729A, “Methods and reagents for regulating obesity” (Children's Medical Center Corporation, priority 1998, dated 2001)
# Key:
# melanocortin-4 receptor = experiment: MC4-R adenylyl cyclase assay (conversion of ATP to cAMP) in membranes from 293 cells transfected with the melanocortin-4 receptor, with ndp-MSH; assay type: biochemical; conditions: for potentiation of MC4-R inhibition by AGRP (formation of cAMP from ATP): membranes preincubated with substance plus AGRP, FIGS. 1a and 1b
# Method: Based on the interaction of AGRP and syndecan-1, the putative interaction between agouti/AGRP and syndecaniheparan sulfate in a functional assay was tested. Membranes from 293 cells transfected with the melanocortin-4 receptor were preincubated with buffer or as indicated with AGRP, heparan sulfate, syndecan-1 ectodomain, heparan sulfate plus AGRP, and syndecan-1 ectodomain plus AGRP. Samples were then mixed with or without the indicated concentration of ndp-{character pullout}MSH and conversion of ATP to cAMP measured in the assay.
# syndecan-1 ectodomain = target: T1, syndecan-1 ectodomain (Mus musculus, UniProt P18828); experiment: Binding of radioactive syndecan-1 ectodomain to neuropeptides immobilized on nitrocellulose membrane (autoradiography); conditions: peptides immobilized on nitrocellulose, UV cross-linked
# T1 sequence (P18828 23-255 limits assumed): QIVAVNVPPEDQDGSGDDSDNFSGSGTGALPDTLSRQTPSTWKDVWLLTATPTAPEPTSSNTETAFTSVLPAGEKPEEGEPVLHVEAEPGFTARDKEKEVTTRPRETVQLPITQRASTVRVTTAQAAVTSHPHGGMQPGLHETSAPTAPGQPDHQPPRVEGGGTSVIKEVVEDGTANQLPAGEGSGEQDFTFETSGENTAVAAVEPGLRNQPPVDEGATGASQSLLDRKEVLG
# Method: Binding of syndecan-1 ectodomain to neuropeptides involved in body weight regulation was tested. Varying concentrations of the peptides were immobilized on a nitrocellulose membrane (for example, 1000 nmol) and fixed by UV cross-linking. The membrane was incubated with radioactive syndecan-1 ectodomain to allow binding and then washed and analyzed by autoradiography.
# Mc3r = conditions: recombinant protein; cited from earlier work
# Mc4r = conditions: recombinant protein; cited from earlier work
Molecule,potentiation of MC4-R inhibition by AGRP (formation of cAMP from ATP) (melanocortin-4 receptor),interaction with syndecan-1 (binding of radioactive syndecan-1 ectodomain to immobilized peptide) (syndecan-1 ectodomain),also measured
heparan sulfate [reference compound],potentiates melanocortin-4R (MC4-R) inhibition by AGRP,,potency of AGRP at inhibiting MC4-R activation in presence of the substance (melanocortin-4 receptor; 1 μg/ml heparan sulfate): 10 nM AGRP is as potent as 100 nM AGRP
"FGF-2: fibroblast growth factor-2, heparin-binding growth factor",,interact with syndecan-1,
"NC(=O)CC[C@@H]1NC(=O)[C@H](Cc2ccccc2)NC(=O)[C@H](Cc2ccc(O)cc2)NC(=O)[C@@H](N)CSSC[C@@H](C(=O)N2CCC[C@H]2C(=O)N[C@@H](CCCN=C(N)N)C(=O)NCC(N)=O)NC(=O)[C@H](CC(N)=O)NC1=O [vasopressin, reference compound]",,interact with syndecan-1,
"AGRP: Agouti-related protein, 132 aa hypothalamic analog of agouti; inhibitor of MC3-R and MC4-R (SSRRCVRLHESCLGQQVPCCDPCATCYCRFFNAFCYCRKLGTAMNPCSRT; UniProt O00253 83-132, looked up)",,interact with syndecan-1,"antagonism of Mc3r (Mc3r): potent, selective antagonist; antagonism of Mc4r (Mc4r): potent, selective antagonist"
"agouti: 131 aa paracrine signaling molecule; switches hair follicle melanocytes from black to yellow pigment (protein, UniProt Q03288 23-131, looked up) Agouti-signaling protein: HLALEETLGDDRSLRSNSSMNSLDFSSVSIVALNKKSKKISRKEAEKRKRSSKKKASMKKVARPPPPSPCVATRDSCKPPAPACCDPCASCQCRFFGSACTCRVLNPNC",,interact with syndecan-1,
"syndecan-1 ectodomain: soluble extracellular domain of syndecan-1, a transmembrane heparan sulfate proteoglycan (protein, UniProt P18827 23-254, looked up, extracellular domain, soluble extracellular domain of syndecan-1, a transmembrane heparan sulfate proteoglycan) extracellular domain: QIVATNLPPEDQDGSGDDSDNFSGSGAGALQDITLSQQTPSTWKDTQLLTAIPTSPEPTGLEATAASTSTLPAGEGPKEGEAVVLPEVEPGLTAREQEATPRPRETTQLPTTHLASTTTATTAQEPATSHPHRDMQPGHHETSTPAGPSQADLHTPHTEDGGPSATERAAEDGASSQLPAAEGSGEQDFTFETSGENTAVVAVEPDRRNQSPVDQGATGASQGLLDRKEVLG",potentiates melanocortin-4R (MC4-R) inhibition by AGRP,,"potency of AGRP at inhibiting MC4-R activation in presence of the substance (melanocortin-4 receptor; 1 ng/ml syndecan-1 ectodomain): 10 nM AGRP is as potent as 100 nM AGRP; potentiation of the action of agouti on the MC4-R (melanocortin-4 receptor; biochemical assay, agouti instead of AGRP): potentiates the action of agouti on the MC4-R; concentration dependence of potentiation of AGRP's action (melanocortin-4 receptor; low versus higher concentrations of syndecan-1 ectodomain): potentiation is less pronounced at higher concentrations"
